Assay results: article PMC7305319, “Talin dissociates from RIAM and associates to vinculin sequentially in response to the actomyosin force” (Nature Communications, 2020)
Where two headings read alike, the source gives them in different places.

Tests used:
RIAM (Homo sapiens) [1] = target: RIAM (Homo sapiens) (UniProt Q7Z5R6); settings: cited from earlier work
Talin R1-R2-R3 = Talin R1-R2-R3 (UniProt Q9Y490); settings: cited from earlier work
RIAM (Homo sapiens) [2] = target: RIAM (Homo sapiens) (UniProt Q7Z5R6); settings: cited from earlier work; remark: listed apart in the source
[3] = target: T1, talin R11 (F2–F3–R11–R13) (human)
T1 chain: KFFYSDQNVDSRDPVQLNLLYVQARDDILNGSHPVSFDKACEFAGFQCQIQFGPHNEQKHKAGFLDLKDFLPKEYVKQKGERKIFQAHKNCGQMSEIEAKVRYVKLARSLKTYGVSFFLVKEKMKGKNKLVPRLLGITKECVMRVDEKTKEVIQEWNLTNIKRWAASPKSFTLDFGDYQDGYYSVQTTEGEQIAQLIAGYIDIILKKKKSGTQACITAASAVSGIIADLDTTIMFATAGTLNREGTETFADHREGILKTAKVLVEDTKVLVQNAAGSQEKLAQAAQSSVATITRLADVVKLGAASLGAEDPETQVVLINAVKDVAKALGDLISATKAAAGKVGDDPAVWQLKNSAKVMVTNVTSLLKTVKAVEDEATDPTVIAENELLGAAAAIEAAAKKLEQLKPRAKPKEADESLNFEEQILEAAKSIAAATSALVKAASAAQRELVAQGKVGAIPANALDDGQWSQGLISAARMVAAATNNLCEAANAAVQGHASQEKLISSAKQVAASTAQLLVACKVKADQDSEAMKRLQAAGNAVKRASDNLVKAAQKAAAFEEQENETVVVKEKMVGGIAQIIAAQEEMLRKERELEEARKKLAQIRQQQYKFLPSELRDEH

[4] = target: T2, talin R1–R2–R3 (F2–F3–R1–R2–R3–R13) (human)
T2 chain: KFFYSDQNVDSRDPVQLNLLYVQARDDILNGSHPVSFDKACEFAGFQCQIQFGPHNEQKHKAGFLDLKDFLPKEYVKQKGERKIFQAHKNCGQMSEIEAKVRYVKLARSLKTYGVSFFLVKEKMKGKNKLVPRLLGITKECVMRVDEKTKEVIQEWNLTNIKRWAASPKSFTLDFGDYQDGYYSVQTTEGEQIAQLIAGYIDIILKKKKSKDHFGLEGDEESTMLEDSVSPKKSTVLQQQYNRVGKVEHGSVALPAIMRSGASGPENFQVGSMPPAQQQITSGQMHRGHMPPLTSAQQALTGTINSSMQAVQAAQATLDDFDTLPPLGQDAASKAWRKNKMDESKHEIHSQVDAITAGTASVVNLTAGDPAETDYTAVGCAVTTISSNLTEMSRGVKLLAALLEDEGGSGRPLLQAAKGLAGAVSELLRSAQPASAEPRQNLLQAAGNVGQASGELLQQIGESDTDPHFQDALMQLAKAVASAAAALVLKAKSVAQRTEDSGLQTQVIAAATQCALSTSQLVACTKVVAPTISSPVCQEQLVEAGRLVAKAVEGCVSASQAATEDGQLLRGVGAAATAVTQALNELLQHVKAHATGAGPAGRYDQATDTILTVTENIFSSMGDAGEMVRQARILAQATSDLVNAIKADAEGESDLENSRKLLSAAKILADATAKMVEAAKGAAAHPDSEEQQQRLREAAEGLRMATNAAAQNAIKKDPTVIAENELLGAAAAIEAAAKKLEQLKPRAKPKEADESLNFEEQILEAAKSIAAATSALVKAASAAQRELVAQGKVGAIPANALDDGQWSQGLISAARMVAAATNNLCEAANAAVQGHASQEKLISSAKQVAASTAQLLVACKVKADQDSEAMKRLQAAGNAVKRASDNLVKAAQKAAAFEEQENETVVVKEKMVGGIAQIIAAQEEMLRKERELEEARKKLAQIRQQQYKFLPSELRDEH

[5] = target: T3, talin R7–R8 (F2–F3–R7–R8–R13) (human)
T3 chain: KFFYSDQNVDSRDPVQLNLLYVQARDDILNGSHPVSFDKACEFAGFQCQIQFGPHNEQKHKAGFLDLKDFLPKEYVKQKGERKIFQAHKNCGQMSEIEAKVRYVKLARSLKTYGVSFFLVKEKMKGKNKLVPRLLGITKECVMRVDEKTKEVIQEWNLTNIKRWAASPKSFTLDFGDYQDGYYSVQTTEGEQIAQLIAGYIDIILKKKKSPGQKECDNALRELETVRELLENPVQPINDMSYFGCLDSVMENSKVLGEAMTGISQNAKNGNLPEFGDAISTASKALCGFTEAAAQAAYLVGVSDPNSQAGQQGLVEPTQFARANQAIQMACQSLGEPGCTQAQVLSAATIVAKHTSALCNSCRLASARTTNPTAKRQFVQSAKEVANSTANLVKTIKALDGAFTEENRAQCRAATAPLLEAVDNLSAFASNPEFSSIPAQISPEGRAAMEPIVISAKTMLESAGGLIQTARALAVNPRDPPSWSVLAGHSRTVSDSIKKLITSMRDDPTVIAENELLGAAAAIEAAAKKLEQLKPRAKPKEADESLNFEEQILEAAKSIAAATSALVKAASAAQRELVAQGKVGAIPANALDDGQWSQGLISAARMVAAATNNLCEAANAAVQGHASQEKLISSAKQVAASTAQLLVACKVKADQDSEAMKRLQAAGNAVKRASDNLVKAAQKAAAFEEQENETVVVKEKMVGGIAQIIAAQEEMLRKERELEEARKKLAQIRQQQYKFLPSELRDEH

[6] = target: T2, talin R1–R2–R3 (F2–F3–R1–R2–R3–R13); test: fluorescence microscopy of protein-coated micropatterns; talin construct (1 µM during coating) on disk micropatterns, 100 nM mCherry-RIAM 1-306 in solution, with actomyosin (2.4 µM actin, 50 nM myosin II) applying force to talin
[7] = target: T2, talin R1–R2–R3 (F2–F3–R1–R2–R3–R13); test: fluorescence microscopy of protein-coated micropatterns; talin construct (1 µM during coating) on 5 µm disk micropatterns, 0–1 µM mCherry-RIAM 1-306 in solution, no actomyosin; Kd estimated as the RIAM concentration at half saturation
[8] = target: T4, talin F2–F3–R1–R2–R3 (talin 196–911) (human, UniProt Q9Y490 196-911); test: as above; settings: both partners purified
T4 construct: human talin-1, F2–F3–R1–R2–R3, residues 196–911; The methods tell of GST cleavage only for mCherry-RIAM 1-306 and EGFP-Vh, so GST was probably kept on this construct; also called the same construct fused to R1–R2–R3; source: E. coli BL21 DE3, purified (glutathione-Sepharose, Ni-NTA)

Sequence of RIAM (Homo sapiens) (Q7Z5R6 whole entry): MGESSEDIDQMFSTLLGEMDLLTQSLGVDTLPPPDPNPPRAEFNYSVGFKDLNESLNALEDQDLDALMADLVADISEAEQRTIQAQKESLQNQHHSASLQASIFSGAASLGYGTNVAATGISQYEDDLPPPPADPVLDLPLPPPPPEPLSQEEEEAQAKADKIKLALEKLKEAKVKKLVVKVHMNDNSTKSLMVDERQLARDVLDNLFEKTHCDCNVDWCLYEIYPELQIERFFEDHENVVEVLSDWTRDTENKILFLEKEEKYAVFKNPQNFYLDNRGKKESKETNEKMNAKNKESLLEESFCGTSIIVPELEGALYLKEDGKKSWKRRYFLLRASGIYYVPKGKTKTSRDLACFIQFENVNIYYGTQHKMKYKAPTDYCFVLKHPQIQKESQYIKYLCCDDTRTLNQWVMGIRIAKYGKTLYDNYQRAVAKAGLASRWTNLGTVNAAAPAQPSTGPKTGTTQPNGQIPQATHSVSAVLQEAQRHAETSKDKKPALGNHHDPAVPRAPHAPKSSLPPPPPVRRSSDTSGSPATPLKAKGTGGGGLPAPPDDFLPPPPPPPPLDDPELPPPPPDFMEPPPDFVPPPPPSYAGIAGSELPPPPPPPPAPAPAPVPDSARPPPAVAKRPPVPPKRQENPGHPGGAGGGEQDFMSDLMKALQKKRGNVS

Talin F3 (from UniProt P26039)
Kd (RIAM (Homo sapiens) [1]): 32 µM

Vinculin Vh (from UniProt P18206)
Kd (Talin R1-R2-R3): 0.14 µM
Kd (RIAM (Homo sapiens) [2]): 5 µM

B1: mCherry-RIAM 1-306 (domain or fragment, mouse, UniProt Q8R5A3 1-306, looked up)
chain: MGESNEDIDQMFSTLLGEMDLLTQSLGVDTLPPPDPNPPREEFNYTVGFKDLNESLNALEDQDLDALMADLVADISEAEQRTIQAQKESSQNQDRFALLRASDGQGTASGGYGASAAAIDVSHHEEALPPPPVEPMLDLLPPPPPPPPPELLSKEEEEAKAKADKIKLALEKLKEAKVKKLVVKVHMDDSSTKSLMVDERQLARDVLDNLFEKTHCDCNVDWCLYEIYPELQIERVFEDHENVVEVLSDWTRDTENKVLFLEKEERYAVFKNPQNFYLDNKGKKENKETNEKMNAKNKEYLLEESF
notes: Cloned in a homemade pGEX-6P2-mCherry plasmid; source: E. coli BL21 DE3, purified (glutathione-Sepharose, PreScission cleavage, Ni-NTA); not shown: GST, N-terminal, cleaved
Kd [3]: 0.036 µM
Kd [4]: 0.134 µM
Kd [5]: 0.038 µM
percent of RIAM dissociated from talin at the end of the kinetics with actomyosin [6]: 50%
Kd [7]: 0.036 µM
binding result [8]: binds
